Laboratory results as given in patent US20230348578A1, “CONFORMATION-SPECIFIC ANTIBODIES THAT BIND TAU PROTEIN AND USES THEREOF” (Beth Israel Deaconess Medical Center, Inc., priority 2020, published 2023).

What follows are molecules tested against cis pT231-tau (P-tau peptide, pure cis or cis-locked) (assay: Biacore assay of binding affinity of humanized cis mAb variants). Conditions: not given.
Source text: We next started to characterize and select lead humanized mAbs. We expressed and purified humanized mAb variants using a CHO expression system. We transfected over 45 plasmid DNA pairs of heavy and light chain cDNAs into CHO cells to express over 225 humanized cis mAb variants in various combinations. To evaluate the target binding specificity and affinity of our mouse mAbs, we established a simple and quantitative ELISA to screen the clones using a wild-type P-tau peptide and its pure cis or cis-locked, and pure trans counterparts and determined the binding affinity for selected clones using Biacore assays. We screened over 200 humanized cis mAb variants. […] Furthermore, one-tenth of humanized cis mAb variants were also able to recognize cis P-tau in human AD and TBI brains based on immunostaining analysis.
(§1) The binding affinity of selected humanized antibody clones was determined by Biacore assay using a wild-type P-tau peptide and its pure cis or cis-locked, and pure trans counterparts. The […] of the selected humanized cis mAb variants was determined by assessing their ability to eliminate cis P-tau in stressed neurons in cell cultures. Functional restoration of selected clones was determined by their ability to restore risk-taking behavior after 3-hit or 7-hit repetitive TBI in mice, as assayed by elevated plus maze.

| Molecule | Kd [nM] |
| --- | --- |
| HT5: humanized cis-pThr231-tau mAb; heavy chain variable domain SEQ ID NO: 25, light chain variable domain SEQ ID NO: 18 (antibody, V domains shown) VH: QVQLVQSGAELKKPGASVKMSCKASGYTFTSYWIHWVKQRPGQGLEWIGVIDPSDSYTRYNQKFKGRATLTVDTSASTAYMQLSSLTSEDSAVYYCTTWEVDYWGQGTTVTVSS VL: DVVMTQSPLSLPVTLGQPASISCRSSQSLVHSDGNTYLHWYLQKPGQSPQLLIYKVSNRDSGVPDRFSGSGSGTDFTLKISRVEAEDVGVYFCSQSTHVPWTFGGGTKVEIK | 6.91 |
| HT6: humanized cis-pThr231-tau mAb; heavy chain variable domain SEQ ID NO: 26, light chain variable domain SEQ ID NO: 18 (antibody, V domains shown) VH: QVQLVQSGAEVKKPGASVKMSCKASGYTFTSYWIHWVKQRPGQGLEWIGVIDPSDSYTRYNQKFKGRATLTVDTSASTAYMELSSLRSEDTAVYYCTTWEVDYWGQGTLVTVSS VL: DVVMTQSPLSLPVTLGQPASISCRSSQSLVHSDGNTYLHWYLQKPGQSPQLLIYKVSNRDSGVPDRFSGSGSGTDFTLKISRVEAEDVGVYFCSQSTHVPWTFGGGTKVEIK | 6.48 |
| HT7: humanized cis-pThr231-tau mAb; heavy chain variable domain SEQ ID NO: 27, light chain variable domain SEQ ID NO: 18 (antibody, V domains shown) VH: QVQLVQSGAEVKKPGASVKVSCKASGYTFTSYWIHWVRQRPGQGLEWIGVIDPSDSYTRYNQKFKGRVTLTVDTSASTAYMELSSLRSEDTAVYYCTTWEVDYWGQGTLVTVSS VL: DVVMTQSPLSLPVTLGQPASISCRSSQSLVHSDGNTYLHWYLQKPGQSPQLLIYKVSNRDSGVPDRFSGSGSGTDFTLKISRVEAEDVGVYFCSQSTHVPWTFGGGTKVEIK | 10.8 |
| HT4: humanized cis-pThr231-tau mAb; heavy chain variable domain SEQ ID NO: 28, light chain variable domain SEQ ID NO: 16 (antibody, V domains shown) VH: QVQLVQSGAEVKKPGASVKVSCKASGYTFTSYWIHWVRQRPGQGLEWIGVIDPSDSYTRYNQKFKGRVTITRDTSASTAYMELSSLRSEDTAVYYCTTWEVDYWGQGTLVTVSS VL: DVVMTQSPLSLPVTLGQPASISCRSSQSLVHSDGNTYLHWYLQKPGQSPQLLIYKVSNRFSGVPDRFSGSGSGTDFTLKISRVEAEDVGVYFCSQSTHVPWTFGGGTKVEIK | 2.42 |
| HT11: humanized cis-pThr231-tau mAb; heavy chain variable domain SEQ ID NO: 27, light chain variable domain SEQ ID NO: 19 (antibody, V domains shown) VH: QVQLVQSGAEVKKPGASVKVSCKASGYTFTSYWIHWVRQRPGQGLEWIGVIDPSDSYTRYNQKFKGRVTLTVDTSASTAYMELSSLRSEDTAVYYCTTWEVDYWGQGTLVTVSS VL: DVVMTQSPLSLPVTLGQPASISCRSSQSLVHSDGNTYLHWYLQKPGQSPQLLIYKVSNRFSGVPDRFSGSGSGTDFTLKISRVEAEDVGVYYCSQSTHVPWTFGGGTKVEIK | 3.99 |
| HT9: humanized cis-pThr231-tau mAb; heavy chain variable domain SEQ ID NO: 25, light chain variable domain SEQ ID NO: 19 (antibody, V domains shown) VH: QVQLVQSGAELKKPGASVKMSCKASGYTFTSYWIHWVKQRPGQGLEWIGVIDPSDSYTRYNQKFKGRATLTVDTSASTAYMQLSSLTSEDSAVYYCTTWEVDYWGQGTTVTVSS VL: DVVMTQSPLSLPVTLGQPASISCRSSQSLVHSDGNTYLHWYLQKPGQSPQLLIYKVSNRFSGVPDRFSGSGSGTDFTLKISRVEAEDVGVYYCSQSTHVPWTFGGGTKVEIK | 1.89 |
| HT12: humanized cis-pThr231-tau mAb; heavy chain variable domain SEQ ID NO: 28, light chain variable domain SEQ ID NO: 19 (antibody, V domains shown) VH: QVQLVQSGAEVKKPGASVKVSCKASGYTFTSYWIHWVRQRPGQGLEWIGVIDPSDSYTRYNQKFKGRVTITRDTSASTAYMELSSLRSEDTAVYYCTTWEVDYWGQGTLVTVSS VL: DVVMTQSPLSLPVTLGQPASISCRSSQSLVHSDGNTYLHWYLQKPGQSPQLLIYKVSNRFSGVPDRFSGSGSGTDFTLKISRVEAEDVGVYYCSQSTHVPWTFGGGTKVEIK | 3.55 |

Further lines, results first:

| Kd [nM] | Molecule |
| --- | --- |
| 4940 | HT17: humanized cis-pThr231-tau mAb; heavy chain variable domain SEQ ID NO: 28, light chain variable domain SEQ ID NO: 17 (antibody, V domains shown) VH: QVQLVQSGAEVKKPGASVKVSCKASGYTFTSYWIHWVRQRPGQGLEWIGVIDPSDSYTRYNQKFKGRVTITRDTSASTAYMELSSLRSEDTAVYYCTTWEVDYWGQGTLVTVSS VL: DVVMTQSPLSLPVTLGQPASISCRSSQSLVHSDGNTYLNWYLQKPGQSPQLLIYKVSNRFSGVPDRFSGSGSGTDFTLKISRVEAEDVGVYFCSQSTHVPWTFGGGTKVEIK |
| 30.2 | HT14: humanized cis-pThr231-tau mAb; heavy chain variable domain SEQ ID NO: 25, light chain variable domain SEQ ID NO: 17 (antibody, V domains shown) VH: QVQLVQSGAELKKPGASVKMSCKASGYTFTSYWIHWVKQRPGQGLEWIGVIDPSDSYTRYNQKFKGRATLTVDTSASTAYMQLSSLTSEDSAVYYCTTWEVDYWGQGTTVTVSS VL: DVVMTQSPLSLPVTLGQPASISCRSSQSLVHSDGNTYLNWYLQKPGQSPQLLIYKVSNRFSGVPDRFSGSGSGTDFTLKISRVEAEDVGVYFCSQSTHVPWTFGGGTKVEIK |
| 3.26 | HT16: humanized cis-pThr231-tau mAb; heavy chain variable domain SEQ ID NO: 27, light chain variable domain SEQ ID NO: 17 (antibody, V domains shown) VH: QVQLVQSGAEVKKPGASVKVSCKASGYTFTSYWIHWVRQRPGQGLEWIGVIDPSDSYTRYNQKFKGRVTLTVDTSASTAYMELSSLRSEDTAVYYCTTWEVDYWGQGTLVTVSS VL: DVVMTQSPLSLPVTLGQPASISCRSSQSLVHSDGNTYLNWYLQKPGQSPQLLIYKVSNRFSGVPDRFSGSGSGTDFTLKISRVEAEDVGVYFCSQSTHVPWTFGGGTKVEIK |
| 1.26 | HT13: mouse-human chimera control antibody; heavy chain variable domain SEQ ID NO: 24, light chain variable domain SEQ ID NO: 15 (antibody, V domains shown) VH: QVQLQQPGAELVKPGASVKMSCKASGYTFTSYWIHWVKQRPGQGLEWIGVIDPSDSYTRYNQKFKGKATLTVDTSSSTAYMQLSSLTSEDSAVYYCTTWEVDYWGQGTTLTVSS VL: DVVMTQTPLSLPVSLGDQASISCRSSQSLVHSDGNTYLHWYLQKPGQSPKLLIYKVSNRFSGVPDRFSGSGSGTDFTLKISRLEAEDLGVYFCSQSTHVPWTFGGGTKLEIK |
| 33.4 | HT15: humanized cis-pThr231-tau mAb; heavy chain variable domain SEQ ID NO: 26, light chain variable domain SEQ ID NO: 17 (antibody, V domains shown) VH: QVQLVQSGAEVKKPGASVKMSCKASGYTFTSYWIHWVKQRPGQGLEWIGVIDPSDSYTRYNQKFKGRATLTVDTSASTAYMELSSLRSEDTAVYYCTTWEVDYWGQGTLVTVSS VL: DVVMTQSPLSLPVTLGQPASISCRSSQSLVHSDGNTYLNWYLQKPGQSPQLLIYKVSNRFSGVPDRFSGSGSGTDFTLKISRVEAEDVGVYFCSQSTHVPWTFGGGTKVEIK |

What follows are molecules tested against cis P-tau (Homo sapiens, UniProt P10636) (assay: Elimination of cis P-tau in cultured neurons stressed by hypoxia). Conditions: 2.5 μg/ml, 5 μg/ml and 10 μg/ml.
Sequence of cis P-tau (P10636 1-441 isoform P10636-8): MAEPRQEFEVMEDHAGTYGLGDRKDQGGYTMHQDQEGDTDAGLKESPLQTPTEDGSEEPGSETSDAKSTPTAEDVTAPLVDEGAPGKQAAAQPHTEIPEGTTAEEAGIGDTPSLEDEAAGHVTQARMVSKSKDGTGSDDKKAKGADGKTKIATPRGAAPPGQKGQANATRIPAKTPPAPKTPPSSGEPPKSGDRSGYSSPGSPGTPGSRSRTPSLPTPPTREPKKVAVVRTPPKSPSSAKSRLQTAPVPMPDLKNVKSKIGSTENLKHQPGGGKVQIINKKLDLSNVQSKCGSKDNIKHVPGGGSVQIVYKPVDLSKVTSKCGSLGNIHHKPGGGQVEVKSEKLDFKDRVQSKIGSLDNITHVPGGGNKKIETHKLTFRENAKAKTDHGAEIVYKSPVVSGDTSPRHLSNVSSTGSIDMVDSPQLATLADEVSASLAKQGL
Format: cell-based
Set-up: endogenous in cells
Experimental: as §1
Cultured neurons were subjected to neuron stress by hypoxia in the presence or absence of different concentration of humanized antibody variants, followed by immunoblotting analysis to analyze cis P-tau levels in the stressed neurons, the results of which are provided in FIGS. 2-4. FIG. 2 is an immunostaining image showing the ability of humanized cis pT231-tau monoclonal antibody variants to eliminate cis P-tau in neurons under hypoxic conditions. Cis P-tau levels are reported in red and blue reports nuclear staining (Hoechst) to represent all neurons in the experiment. […] Cis P-tau levels are reported in red and blue reports nuclear staining (Hoechst) to represent all neurons in the experiment. […] IgG is a negative control. The cis-pTau monoclonal antibody C113 serves as a positive control.

| Molecule | elimination of cis P-tau in neurons under hypoxic conditions (images) |
| --- | --- |
| C113: previously described murine cis-pTau monoclonal antibody (U.S. Pat. No. 9,688,747); SEQ ID NO: 24 and 15; positive control (antibody, V domains shown, previously described murine cis-pTau monoclonal antibody (U.S. Pat. No. 9,688,747); positive control) VH: QVQLQQPGAELVKPGASVKMSCKASGYTFTSYWIHWVKQRPGQGLEWIGVIDPSDSYTRYNQKFKGKATLTVDTSSSTAYMQLSSLTSEDSAVYYCTTWEVDYWGQGTTLTVSS VL: DVVMTQTPLSLPVSLGDQASISCRSSQSLVHSDGNTYLHWYLQKPGQSPKLLIYKVSNRFSGVPDRFSGSGSGTDFTLKISRLEAEDLGVYFCSQSTHVPWTFGGGTKLEIK | elimination of cis P-tau |
| HT13: mouse-human chimera control antibody; heavy chain variable domain SEQ ID NO: 24, light chain variable domain SEQ ID NO: 15 (antibody, V domains shown) VH: QVQLQQPGAELVKPGASVKMSCKASGYTFTSYWIHWVKQRPGQGLEWIGVIDPSDSYTRYNQKFKGKATLTVDTSSSTAYMQLSSLTSEDSAVYYCTTWEVDYWGQGTTLTVSS VL: DVVMTQTPLSLPVSLGDQASISCRSSQSLVHSDGNTYLHWYLQKPGQSPKLLIYKVSNRFSGVPDRFSGSGSGTDFTLKISRLEAEDLGVYFCSQSTHVPWTFGGGTKLEIK | elimination of cis P-tau |
